# B1: huBUB1 protein (plasmid p337-50) (protein)
# chain: MDTPENVLQMLEAHMQSYKGNDPLGEWERYIQWVEENFPENKEYLITLLEHLMKEFLDKKKYHNDPRFISYCLKFAEYNSDLHQFFEFLYNHGIGTLSSPLYIAWAGHLEAQGELQHASAVLQRGIQNQAEPREFLQQQYRLFQTRLTETHLPAQARTSEPLHNVQVLNQMITSKSNPGNNMACISKNQGSELSGVISSACDKESNMERRVITISKSEYSVHSSLASKVDVEQVVMYCKEKLIRGESEFSFEELRAQKYNQRRKHEQWVNEDRHYMKRKEANAFEEQLLKQKMDELHKKLHQVVETSHEDLPASQERSEVNPARMGPSVGSQQELRAPCLPVTYQQTPVNMEKNPREAPPVVPPLANAISAALVSPATSQSIAPPVPLKAQTVTDSMFAVASKDAGCVNKSTHEFKPQSGAEIKEGCETHKVANTSSFHTTPNTSLGMVQATPSKVQPSPTVHTKEALGFIMNMFQAPTLPDISDDKDEWQSLDQNEDAFEAQFQKNVRSSGAWGVNKIISSLSSAFHVFEDGNKENYGLPQPKNKPTGARTFGERSVSRLPSKPKEEVPHAEEFLDDSTVWGIRCNKTLAPSPKSPGDFTSAAQLASTPFHKLPVESVHILEDKENVVAKQCTQATLDSCEENMVVPSRDGKFSPIQEKSPKQALSSHMYSASLLRLSQPAAGGVLTCEAELGVEACRLTDTDAAIAEDPPDAIAGLQAEWMQMSSLGTVDAPNFIVGNPWDDKLIFKLLSGLSKPVSSYPNTFEWQCKLPAIKPKTEFQLGSKLVYVHHLLGEGAFAQVYEATQGDLNDAKNKQKFVLKVQKPANPWEFYIGTQLMERLKPSMQHMFMKFYSAHLFQNGSVLVGELYSYGTLLNAINLYKNTPEKVMPQGLVISFAMRMLYMIEQVHDCEIIHGDIKPDNFILGNGFLEQDDEDDLSAGLALIDLGQSIDMKLFPKGTIFTAKCETSGFQCVEMLSNKPWNYQIDYFGVAATVYCMLFGTYMKVKNEGGECKPEGLFRRLPHLDMWNEFFHVMLNIPDCHHLPSLDLLRQKLKKVFQQHYTNKIRALRNRLIVLLLECKRSRK
# B2: HA-huBUB1 (protein)
# chain: B1 chain
# Assays:
# [1] = molecular target: FLAG-huBUB3 protein fusion (plasmid p322-1)
# [2] = molecular target: huBUB3 protein (untagged; expression plasmid p291-2, ~2.7 kb variant)
# huBUB3 protein (untagged; expression plasmid p291-2, ~2.7 kb variant), sequence (chain, as listed by the source mutant): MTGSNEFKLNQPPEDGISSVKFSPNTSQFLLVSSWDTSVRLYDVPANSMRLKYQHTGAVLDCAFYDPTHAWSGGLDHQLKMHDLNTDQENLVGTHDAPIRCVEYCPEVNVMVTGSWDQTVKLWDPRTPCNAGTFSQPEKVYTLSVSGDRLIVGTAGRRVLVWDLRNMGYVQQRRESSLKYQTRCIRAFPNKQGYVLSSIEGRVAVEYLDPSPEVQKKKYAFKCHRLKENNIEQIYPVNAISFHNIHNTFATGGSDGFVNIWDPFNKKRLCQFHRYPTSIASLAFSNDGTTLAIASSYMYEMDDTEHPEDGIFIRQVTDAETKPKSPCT
# FLAG-huBUB3 protein fusion (plasmid p322-1), sequence (chain, as listed by the source): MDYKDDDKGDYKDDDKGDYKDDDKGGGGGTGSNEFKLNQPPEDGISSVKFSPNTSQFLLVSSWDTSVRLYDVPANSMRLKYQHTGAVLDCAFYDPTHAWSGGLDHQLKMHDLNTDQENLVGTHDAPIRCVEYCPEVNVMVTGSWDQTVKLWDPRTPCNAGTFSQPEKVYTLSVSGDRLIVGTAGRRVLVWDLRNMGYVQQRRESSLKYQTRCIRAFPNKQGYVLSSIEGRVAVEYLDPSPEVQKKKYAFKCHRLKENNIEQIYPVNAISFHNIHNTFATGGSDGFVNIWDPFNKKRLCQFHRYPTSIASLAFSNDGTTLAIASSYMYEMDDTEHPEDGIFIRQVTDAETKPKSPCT
protein,measurement,setting,value
B1,in vitro kinase activity towards test proteins,PHAS-I,identified PHAS-I as an in vitro substrate of the huBUB1 kinase
B2,phosphorylation in kinase reactions,[1],only HA-huBUB1 auto-phosphorylation was observed in kinase reactions containing these proteins
same,huBUB1 auto-phosphorylation,[2],did not reproducibly stimulate or inhibit huBUB1 auto-phosphorylation
same,phosphorylation in kinase reactions,[2],only HA-huBUB1 auto-phosphorylation was observed in kinase reactions containing these proteins
